From PMC9418005

Biological target: Omicron BA.1.1 spike trimer (includes the R346K mutation) (SARS-CoV-2) (UniProt P0DTC2)
Test: Luminex spike-ACE2 surrogate neutralization assay

Substance P5C3 LS monoclonal antibody has a percent inhibition of ACE2 binding at 20 µg ml^−1 of 100%.
